The record followed here is paper PMC2132943.

In this assay the target is T1, CXCR4 receptor (human (endogenous in HEK-293)), P61073.
T1 chain: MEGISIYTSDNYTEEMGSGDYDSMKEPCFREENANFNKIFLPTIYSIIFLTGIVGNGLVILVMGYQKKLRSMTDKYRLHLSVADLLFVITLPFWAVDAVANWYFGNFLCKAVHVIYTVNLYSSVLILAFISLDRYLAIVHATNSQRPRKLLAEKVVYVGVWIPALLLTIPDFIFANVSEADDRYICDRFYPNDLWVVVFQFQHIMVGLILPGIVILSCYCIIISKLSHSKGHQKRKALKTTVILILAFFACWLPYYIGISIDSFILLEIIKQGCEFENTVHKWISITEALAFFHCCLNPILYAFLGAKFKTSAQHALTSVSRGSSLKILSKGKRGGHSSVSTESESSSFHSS
As to the kind of experiment: cross-linking. To be noted: remark: other sources report otherwise.

B1: CXCR4 receptor, P61073 1-352 (receptor)
chain: T1 chain
Regarding B1, the stoichiometry N (usually the number of molecules, sites or subunits per partner or assembly) is 2.
